# Laboratory results published in US20200224186A1 (University of Washington, published 2020).
# How the values were obtained:
# [1] = molecular target: the molecule itself; assay: size exclusion chromatography and negative stain EM, self-assembly
# [2] = molecular target: the molecule itself; assay: electron cryo-tomography of released vesicles, self-assembly
protein,measurement,setting,value
"Myr-I3-01-myc-p6 (designed binder, N-terminal myristoylation motif (6 N-terminal amino acids of HIV Gag); not myristoylated when produced in E. coli, Forms icosahedral assemblies like I3-01; also called Myr-I3-01-p6) MGARASGSKSGSGSDSGSKMEELFKKHKIVAVLRANSVEEAKKKALAVFLGGVHLIEITFTVPDADTVIKELSFLKEMGAIIGAGTVTSVEQCRKAVESGAEFIVSPHLDEEISQFCKEKGVFYMPGVMTPTELVKAMKLGHTILKLFPGEVVGPQFVKAMKGPFPNVKFVPTGGVNLDNVCEWFKAGVLAVGVGSALVKGTPVEVAEKAKAFVEKIRGCTEQKLISEEDLQSRPEPTAPPEESFRSGVETTTPPQKQEPIDKELYPLTSLRSLFGNDPSSQ",binding result,[1],binds
"EPN-01 (designed binder, N-terminal myristoylation motif (6 N-terminal amino acids of HIV Gag), Every subunit bears the M domain; also called Myr1-12GS-I3-01(M3I)-myc-Late1) MGARASGSKSGSGSDSGSKIEELFKKHKIVAVLRANSVEEAKKKALAVFLGGVHLIEITFTVPDADTVIKELSFLKEMGAIIGAGTVTSVEQCRKAVESGAEFIVSPHLDEEISQFCKEKGVFYMPGVMTPTELVKAMKLGHTILKLFPGEVVGPQFVKAMKGPFPNVKFVPTGGVNLDNVCEWFKAGVLAVGVGSALVKGTPVEVAEKAKAFVEKIRGCTEQKLISEEDLQSRPEPTAPPEESFRSGVETTTPPQKQEPIDKELYPLTSLRSLFGNDPSSQ",binding result,[2],binds
